Biological target: GST-tagged Gcn4 (transcription factor Gcn4) (S. cerevisiae, UniProt P03069 1-281)
Test: pull-down

Sequence of GST-tagged Gcn4 (transcription factor Gcn4) (P03069 whole entry): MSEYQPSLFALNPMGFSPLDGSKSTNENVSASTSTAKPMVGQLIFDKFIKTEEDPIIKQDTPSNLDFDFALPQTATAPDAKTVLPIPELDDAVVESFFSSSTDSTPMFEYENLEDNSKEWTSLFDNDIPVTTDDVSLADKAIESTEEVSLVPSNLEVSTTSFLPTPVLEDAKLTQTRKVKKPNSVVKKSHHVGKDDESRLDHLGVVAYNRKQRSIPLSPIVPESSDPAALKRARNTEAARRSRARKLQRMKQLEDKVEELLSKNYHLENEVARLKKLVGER

- binding result: binds
B1: His-tagged Rpb9 (RNA polymerase II subunit Rpb9) (natural protein, S. cerevisiae, UniProt P27999 1-122, looked up)
chain: MTTFRFCRDCNNMLYPREDKENNRLLFECRTCSYVEEAGSPLVYRHELITNIGETAGVVQDIGSDPTLPRSDRECPKCHSRENVFFQSQQRRKDTSMVLFFVCLSCSHIFTSDQKNKRTQFS

Source: paper PMC9638876 (EMBO Reports, 2022)
